The target of data set [1] is T1, Fluorogenic peptide substrate ENLYFQEGGK with E at P1'.
T1 chain: ENLYFQEGGK

The target of data set [2] is T2, Fluorogenic peptide substrate ENLYFQGGGK with G at P1'.
T2 chain: ENLYFQGGGK

Data set [3] has as its target T3, Fluorogenic peptide substrate ENLYFQIGGK with I at P1'.
T3 chain: ENLYFQIGGK

Data set [4] has as its target T4, Fluorogenic peptide substrate ENLYFQKGGK with K at P1'.
T4 chain: ENLYFQKGGK

The target in data set [5] is T5, Fluorogenic peptide substrate ENLYFQLGGK with L at P1'.
T5 chain: ENLYFQLGGK

For data set [6], the target named is T6, Fluorogenic peptide substrate ENLYFQRGGK with R at P1'.
T6 chain: ENLYFQRGGK

Data set [7] concerns the target T7, Fluorogenic peptide substrate ENLYFQTGGK with T at P1'.
T7 chain: ENLYFQTGGK

In data set [8] the target is T8, Fluorogenic peptide substrate ENLYFQVGGK with V at P1'.
T8 chain: ENLYFQVGGK

B1: TEV protease double mutant DM (SEQ ID NO:1 with S153N and R203G) (protein)
chain: GTHHHHHHGSGSGTGESLFKGPRDYNPISSSICHLTNESDGHTTSLYGIGFGPFIITNKHLFRRNNGTLLVQSLHGVFKVKDTTTLQQHLVDGRDMIIIRMPKDFPPFPQKLKFREPQREERICLVTTNFQTKSMSSMVSDTSCTFPSSDGIFWKHWIQTKDGQCGNPLVSTRDGFIVGIHSASNFTNTNNYFTSVPKNFMELLTNQEAQQWVSGWGLNADSVLWGGHKVFMNKPEEPFQPVKEATQLMN
As to B1, the Km (Michaelis Menten kinetics, fluorogenic peptide cleavage) in data set [1] came out at 41 µM; in data set [2], 13.7 µM; in data set [3] it was 45.9 µM; in data set [4], 13.8 µM; in data set [5] it was 23.2 µM; in data set [6], 47.2 µM. In addition, the Km (Michaelis Menten kinetics, fluorogenic peptide cleavage) is 7 µM in data set [7] and 45.8 µM in data set [8].

B2: TEV protease variant P1-M218F (SEQ ID NO:1 with Q74L, S135G, I138T, S153N, R203G and M218F) (protein)
chain: GESLFKGPRDYNPISSSICHLTNESDGHTTSLYGIGFGPFIITNKHLFRRNNGTLLVQSLHGVFKVKDTTTLQLHLVDGRDMIIIRMPKDFPPFPQKLKFREPQREERICLVTTNFQTKSMSSMVSDTSCTFPSGDGTFWKHWIQTKDGQCGNPLVSTRDGFIVGIHSASNFTNTNNYFTSVPKNFMELLTNQEAQQWVSGWGLNADSVLWGGHKVFFNKPEEPFQPVKEATQLMN
For B2, the Km (Michaelis Menten kinetics, fluorogenic peptide cleavage) was 1.5 µM in data set [1]; 2.9 µM in data set [2]; 5.3 µM in data set [3]; 7.4 µM in data set [4]; 2.2 µM in data set [5]; 14.5 µM in data set [6]. The figures for the Km (Michaelis Menten kinetics, fluorogenic peptide cleavage) in data set [7] and in data set [8] were 1.1 µM and 2.5 µM, respectively.
